Measured values reported in a protein production outcome set (Wang et al. 2014).

Assay: label from the status in PepcDB records
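Note: failed if final PepcDB status was selected cloned or expressed and not failed if soluble or beyond.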

Q: With “MSIRIKLFLAFLLTTFVVVMGMHFFTRWSLEKGFTEFIEKRQQERLDKIIDVLEEHYAEHRGWGELAGNKQHWISLLWHAGPHRHRPPKWIIEQAQHEPDRQWPPAVTPGTAERKWSPFELRVILLDADRSILFGRKELISQLSLHPVQYEHRTVGFLGLLPGNPVSQASDIYFMEQQADFFFWIALTMVVLSALIAWLMAYHLGRPLKQIAAVVQRLATGDYKARLPVISKDEMGQLALNFNDTAAALEQAEQSRRRWVADISHELRTPLAVLRGELEAILDGVHPLTPAAIESLSGDVLRLNRLTEDLYQLALSDQGALSYRKVLLDPVPLLREDLATFTTDFNHKQISVRWINRLFKPVLVNADPDRLSQLFRNLLTNSLNHTDARGQLEITVQRLADKLVIELADSSPGVSDQDIAHLFDRFYRVDHSRNRHLGGAGLGLAICSNIVRAHEGTLMASHSALGGLAIHIELPITP” as the sequence, how does the protein production read?
A: Its protein production is “failed”.

Q: With “MSIRLAQVTDIPVLKELLNQIFQVHQTVRPDLFKNTDKGSKYSETELKELLQDESKPIFVYTDGKNRVLGHLFLVIKETKGSSVSKPLKTLFIDDLCVSKEARGQKIGQELFEFALKYAKKLGCYDLTLNVWNDNKGALAFYERQGLKARETKMEKILLEHHHHHH” as the sequence, how does the protein production read?
A: Its protein production is “not failed”.

Q: For “MSIRLTNISKKFGQFQALSPLNLDIQEGEMIGLLGPSGSGKTTLLRIIAGLEGADSGHIHFGNRDVTQVHVRDRRVGFVFQNYALFRHMTVADNVAFGLEVIPKKQRPSAAEIQKRVSHLLEMVQLGHLAQRYPEQLSGGQKQRIALARALATQPEVLLLDEPFGALDAKVRKELRRWLRSLHDELKFTSVFVTHDQDEALELSDRVVVMSNGNIEQVNTPIELYAQPNSRFVFDFLGNVNRFEANWQQNRWTNGDAFIVPPEQTPLQQNGALYVRSHELALADKPNSQAHIPFTIVAITPIGAEVRVELAPIGWQSEELWEAKFTHHHLQELGLQKGSVVYATPRTGYFFGKQGDGSPIRQSWPFLPPGSLAFDI”, which protein production is on record?
A: The protein production was “failed”.

Q: With “MSISRRDFNKLLLAGAAGSAFGLFGSGNTAFAARKRVVVIGGGFGGAATAKYLKKLDPTLAVTLIEPKPAFVTCPFSNWVLGGLRTMKDITHTYTALRTRHGVNVIADRVVSVDAAKGTLRLAGGRVIGYDRLVVSPGIDFKYDTIPGYSQKIAKSKMPHAWQAGPQTILLHRQLQAMKNGGTVVICPPDNPFRCPPGPYERASLIAYYLKQHKPKSKIVILDAKEKFSKQGLFTKGWESRYPGMIELRGSTGGGKVLGVDAKAMTVETDLGAVKGDVINVIPAQKAGKIAFEAGLTNEKGWCPVNPSSFESTIHQGIHVIGDACIAGAMPKSGFAASSQGKVAAVAIINLLRGQEPAPPSLVNTCYSLIGPKYGVSVAGVYQLSPTGIVEIPGSGGRLRPMPATNSWNRRRFSPKAGTPISARISGDKPLDSCGVPAVNHQAPLPLTHKATPDCRKR” as the sequence, how does the protein production read?
A: The protein production was “failed”.

Q: Which protein production does the source give for “MSITLLTGIGEIFLGILLNVFIGKIVKIVFKKDGTLPRVPVRFIGITLILNGVGNMVHL” here?
A: The protein production was “failed”.

Q: Which protein production does the source give for “MSKDLLFWLTILLVLISGYLSYRKKRIESLTTAGLAGGFALSFMLYEKFPVLFSFLLGFIATFAFEWTRKR” here?
A: The protein production was “failed”.

Q: For “MSKFKSHNSNNTKQTINKHALIFGLISVFLSGIGFTIISPVIPFLVQPYINNPGNQAIIVTLLTSVYAICMFFSAPGLGALSDKYGRRPVLLVCLLGSSIGYLIFGIGGALWVLFAGRIIDGITGGTISTIFAYFADIIPENERTKYFGWVSAVVGVGTIIGPTLGGLLAKFGYSVPLYFGAIITLLNVVYGFFFMPESLDKNIRLKEITFVRLNPFTQLANLLSIKSLKRLLISAFLLWIPNGSLQAVFSQFTIDTFSWKPAIIGLMFSIMGFQDIISQSLIMPKLLVKLSDKYIAILGMISEVIGYSLIAASALFYFYPLFIAGMFIFGFGDSIFGPSFNGMLSKSVDSSEQGRIQGGSQSIQALARMIGPIIGGQIYVSLGHATPAFMGIVLITVAIPVLYKNIHINI”, which protein production is on record?
A: The protein production was “failed”.

Q: Which protein production does the source give for “MSKGYGVFGHVPDNADDDDLLPYEDDDSGVSWGHALRRRNPWKRGGDEGADYDDDRYGADDTDDTDDTNEDRSLFAGKSSGIGGISGEADGMLGGAGAAGSRAVTFGGTDSLSAADAVMPYRFRQGRSVWFEDEDEGHFAGAAKRAEAHAVPILALRNDVESSSSNAVLARARSIARKAATMVINPVYSENHRTGYAELDGILRGTTSPSSKYRTSVQFDLDTGEAVGGKCSCPAYGRGYGMCKHMIALAFIFCDDPQRFEGYRAGAVRPSRTLIDYMEHVDRQDAQAKARRRNALMRRFDTAKGRNGAGGRHTNSGYGSRAGTRGGGYQGDSETVGLGQVQLVPILSFIDGVWSVEFKIGSTSNGSSYVLKSIPQFVLTMANGDYTDYGQKLAFTHTPDMFDDDSRPLLGFLDDAMAVRRAAEQQDRYYGHIAIDRHLTLSAPEVARLLSVREGRGVQLVLNTWFSGQPASVPVDGGEPDFLMRIARRDFNTYGPDAGYLLTGVPAVETVIDGGKNVWLLLASANPAGVVSAMMAGSQRKSAAGCRFVRCPKRLIPLRGLLGDMFEPDGEGQVIAGDDIALFARTLLPQLVGAGLLEASEIPRELAELSPTECSLQFYLDRDEHGVQCEVKARYGDAIVPLLPDGPTVHARDERSIPLSRGVIGRDFDAEHLAIDVVREFFTMPDQRKRVAAATHQTVNGFRTPAARKTAKQFVPDAATIDRDDTTQIVRLFDEGLPALKEVGEVFTTPAFDRLIAPKPPSVKVGLSIKGNLVEISPLADEVPPDEVGALLSSYRRRQRFHQLKDGTLVKLSGANLSTLDRLASDLDLSEQQLNSGLIELPGGRAFLLDGELPDDGSDVVKDASFTEYIDDLKIIDPKSYEVPDSLKHILRPYQVEGFQWLNTLCDKGFGGILADEMGLGKSVQLIALLLSRYHNESSGMPTAQGMDAGNAGNSESAVTGHITFDSEDGGSHPSLIVCPASLVYNWGAEFAKFAPSFNAVVVAGTKAERRTAIGRAFRADEPTVLITSYDLLRRDVDDYTANEQRFNVMALDEAQYIKNHTTKIAKAVKAVAADHRFALTGTPIENRLSELWSIFDFLMPGLLGSYKRFHERYELPISNARAADGSTAEGRAAAQVNPEAARVSRQLQSLVGVFIKRRLKSQVLTDLPDKLETTLTVQLAGEQRKLYAAHEQRLRMQLEHSEEADFNTSKIRILAELTKLRQICCDPRLLYADAKDQSAKLAAITELVETCVNEGKKALIFSQFTSFLDLIAERFDAQGLRYYTITGSTPKKKRLELVDQFNADDTPAFLISLKAGNTGLNLTGASVVIHADPWWNAAAQDQATDRAHRIGQTEDVNVYQVVAKDTIEERILELQHTKSELARQFTDASLLADEAGTGASALTEAPASIATLTKDDLLNLLG” here?
A: The protein production was “failed”.

Q: With “MSKHTKFSPEVRDRAIRMVYEVRESRTSQWAAIEAVASKIGCTAQTLSSWIRKAAAPAAPSASGTDARVKELEREVRELKRANEILKVASAFSAQAELDRRLK” as the sequence, how does the protein production read?
A: Its protein production is “failed”.

Q: With “MSKIAIIVDSSSYIPKDQLKKHHIYVIDNPIIFGETIYHEFNWPVNADFYQQMATTPIQPTTSQPAPGDFEAAFQAAKDDGYKQALVITLSSGFSGTFLNTSAIASSHSDIDIHVWDSRIACLGAGNQALLAAYLAEKGIGIDEILSKLQILRSRTGVFFVVDSISHLQRTGRLSGGQALVAGLLNIKPILNINTNKQGKIDAVAKTRKMSGAWRYIEKHFAKIADNYQRAGWPMRVSILDADNPELADAWLKRAEKRWPEIIFERGIIGPLVGVHIGGKAVGLIWAEDYKRLED” as the sequence, how does the protein production read?
A: The protein production was “failed”.

Q: With “MSKIASEVVATTLNDWYIAIKKQKVDESIKYYSEIKKLFDEMEEDQEVLAYYSLLEERHKMLLHSSRGEPLQKHTYFTEDNQNFITKTNDKLEYNFYLFEAMYEAYNKNYDRAINLYGLAEKKLAEIPDEIEAAEFYSKVSYLYTLVKQSIVAQHYIKNAISIYKRHPDYKCKLATSTMIAAANYADMKRFEEAEQYYLEAIDIAKETKDEFLKAQLFHNLSIVYSDWNKPDKCIESLEKAIGNESWLHSIYYINSLFMMIKELFKIDEKMKAINFYNKAQERLILMENKVYEAKISILYNLYCGELKNNFNNCISNIEFLKQQNELESVDELSYIAAKRFESIGAFEEATSFFNAKIWAEQKMNQVEGIL” as the sequence, how does the protein production read?
A: Its protein production is “failed”.

Q: Which protein production does the source give for “MSKIEIFEAAGCCATSSVVVSDEAVKWNASAEWAKKHGVNIQRYSLAKNPQQFLNTPVIRAFLNTSGMESLPATLLDGQLVMAGKLPSREDIARWAGISLTQDWNEDSTQPRCCSIPRMP” here?
A: The protein production was “failed”.

Q: For “MSKIKWSNLWKGFAMGTTDLVPGVSGGTIALLLGIYDDFIRSISGLFSKRFWESLKFLLPIGIGMVVAIGLLSKLINYLLSTHTVPTMFFFVGLIGGIIPYLLKTSRFKHTFTTPHYLLLVVGIIVIVMMTVMNSGDKHAGETLSLSTGLILKYFIAGACASSAMLLPGISGSFMLLVFGVYGTIMYAISEFVSLNFAALPILITVGCGVLFGFLCSSKLIQYLLSYYTYLTYALIIGFVIGSLYAVFPGLPSTIMIWIVSIVTLLLGFVISYRLGRLTAD”, which protein production is on record?
A: The protein production was “failed”.

Q: Which protein production does the source give for “MSKKGFFEYKLSKEIVRALTGLGYDHPTEVQGEVIPVALQKKDLVVKSQTGSGKTASFGIPLCEMVEWEENKPQALVLTPTRELAVQVKEDITNIGRFKRIKAAAIYGKSPFARQKLELKQKTHIVVGTPGRVLDHIEKGTLSLERLKYLVIDEADEMLNMGFIDQVEAIIDELPTNRMTMLFSATLPEDVERLSRTYMNAPTHIEIKAAGITTDKIEHTLFEAIEDEKFSLLKDVTTIENPDSCIIFCRTQENVDHVYRQLKRANYPCDKIHGGMVQEDRFEVMDDFRKGKFRYLVATDVAARGIDIDNITHVINYDIPLEKESYVHRTGRTGRAGNSGKAITFITPYENRFLEEIEEYIGFEIPKAIGPSKEEVMKGKAAFEEKIHAKPIIKKDKNADINKGIMKLYFNGGKKKKIRAVDFVGTIAKIKGVTAEDIGIITIQDNVSYVEILNGKGPLVLKVMKTTTIKGKQLKVHEAIK” here?
A: Its protein production is “failed”.

Q: With “MSKKPPNRPGITFEIGARLEALDYLQKWYPSRIEKIDYEEGKMLVHFERWSHRYDEWIYWDSNRLRPLERPALRKEGLKDE” as the sequence, how does the protein production read?
A: Its protein production is “not failed”.

Q: Which protein production does the source give for “MSKKSVLITSLMLFSMFFGAGNLIFPPMLGLSAGTNYLPAILGFLATSVLLPVLAIIAVVLSGENVKDMASRGGKIFGLVFPIAAYLSIGAFYALPRTGAVSYSTAVGVDNALYSGLFNFVFFAVALALSWNPNGIADKLGKWLTPALLTLIVVLVVLSVAKLDGTPGEPSSAYAQQPAGAGLLEGYMTMDAIAALAFGIVVISAFKYQKVNKVRTATVVSAFIAGILLALVYLGLGSIGQVVNGEFADGTAILNYAALSTMGQAGRIMFVAILILACMTTAVGLISATSEFFNSLLPGVKYHVWATVFALISFGVATMGLDTVLAVAAPVISFIYPSAITLVFLSLIEPLLFRLKWTYLFGIWTAVVWALFMSIPALNPFIEWAPLHSMSLGWVVPVLVASAIGLAIDWNKKGAQSVAKKESISV” here?
A: Its protein production is “failed”.

Q: For “MSKKVIADVFLEVANAIESGEFGKKVKIGVTTLGSEHGVENMVNGAQLAKSNLFDIVLIGPKVETDLEVVEVNDEKEMHAKMEELLDSGYIDACVTMHYNFPIGVSTVGRVITPAKGKEMILATTTGTSATNRIEAMVRNAIYGIATAKSMGNKCPKVGILNVDGARQVEKCLKELKDNGYDMEFADSIRADGGCVMRGNDLLVGAPDVMVTDTLSGNIFMKVFSSYTTGGDYEAQGFGYGPGVGEDYDRKVLIVSRASGSPVVANALKYAYDVVKGDISNVARNEFAKVKKAKFDDIISSLTKKEVKAEKVEVKMPDKEIVTRQIAGVDIMDLEDAVSELWKNGIYAESGMGCTGPIVLVNEAKGDLAVETLVKAGYTAK”, which protein production is on record?
A: The protein production was “failed”.

Q: With “MSKLIVPQWPQPKGVAACSSTRIGGVSLPPYDSLNLGAHCGDNPDHVEENRKRLFAAGNLPSKPVWLEQVHGKDVLKLTGEPYASKRADASYSNTPGTVCAVMTADCLPVLFCNRAGTEVAAAHAGWRGLCAGVLEETVSCFADNPENILAWLGPAIGPRAFEVGGEVREAFMAVDAKASAAFIQHGDKYLADIYQLARQRLANVGVEQIFGGDRCTYTENETFFSYRRDKTTGRMASFIWLI” as the sequence, how does the protein production read?
A: Its protein production is “not failed”.
